According to article PMC11633110:
Positions count from the first letter of the chain named.

Tests used:
Experiment in all cases: EMSA
Conditions in all cases: 10 mM Tris-HCl pH 8, 50 mM KCl, 0.5 mM EDTA, 10% glycerol, 0.5 mM DTT, 10 nM DNA, 25°C 25 min; 8% PAGE in 0.5x TBE
[1] = target: T1, SydR' C16S (SC) C16S (Sinorhizobium meliloti Rm2011) (UniProt Q92XY2)
T1 sequence: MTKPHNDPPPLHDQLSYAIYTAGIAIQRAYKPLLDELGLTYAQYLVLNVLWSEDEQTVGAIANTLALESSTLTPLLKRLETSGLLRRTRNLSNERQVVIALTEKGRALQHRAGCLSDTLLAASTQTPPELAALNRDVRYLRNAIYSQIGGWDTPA

[2] = target: T2, SydR' C114S (CS) C114S (Sinorhizobium meliloti Rm2011) (UniProt Q92XY2)
T2 sequence: T1 sequence with S16C, C114S

[3] = target: T3, SydR' C16S&C114S (SS) C16S;C114S (Sinorhizobium meliloti Rm2011) (UniProt Q92XY2)
T3 sequence: T1 sequence with C114S

Q: How did the binding [1] turn out when “TCTGGGCTCCTTTGCGCACCAATATAATCAAGATTACCGCGAAAACCAATATCGCGATAAGAGATATGTTGACGAGCAGTTCAATATCTGACAACTTAAATATATCGCGATAACAGTTATCGCTATCAACGAAAGGAAAAAGCC (double strand) [sydR-SMa2023 intergenic region, 144 bp]” was run?
A: binds more weakly

Q: And the binding [2]?
A: binds

Q: And the binding [3]?
A: binds more weakly
